Common to all, as to test: enzyme inhibition at equilibrium, steady state velocities fitted to the equation for tight binding inhibitors
For experiment [1], the target named is bovine chymotrypsin (bovine, UniProt P00766).
Experiment [2] addresses bovine trypsin (bovine, UniProt P00760).
The target in experiment [3] is human cathepsin G (human, UniProt P08311).
Experiment [4] concerns the target porcine tissue kallikrein (porcine, UniProt P00752).
The target of experiment [5] is human plasmin (human, UniProt P00747).

No end group written: not given here.

B1: hirustasin (Hirudo antistasin) (other)
chain: TQGNTCGGETCSAAQVCLKGKCVCNEVHCRIRCKYGLKKDENGCEYPCSCAKASQ
modifications: not fully specified; cysteine pairing not given here
The Ki is the dissociation constant of the complex between target and ligand, obtained from inhibition or displacement. Low readings indicate a stronger hold on the target, high ones a looser hold on the target. In the case of B1, the Ki in experiment [1] is 6.4 nM; in experiment [2] it was 7 nM; in experiment [3], 2.9 nM; in experiment [4], 13 nM; in experiment [5], 138 nM.
